T1: mouse IL-2Rβ (mouse) (UniProt P16297)
T1 sequence (looked up): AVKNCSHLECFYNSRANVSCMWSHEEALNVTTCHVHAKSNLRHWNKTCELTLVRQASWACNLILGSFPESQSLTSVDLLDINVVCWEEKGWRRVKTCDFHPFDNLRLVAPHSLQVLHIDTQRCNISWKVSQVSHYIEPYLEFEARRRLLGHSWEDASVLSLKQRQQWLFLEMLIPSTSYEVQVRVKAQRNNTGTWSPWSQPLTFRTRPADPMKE

B1: FJ1427 P035MP03E07 (VHH)
VHH: QVQLVESGGGLVQAGGSLRLSCAVSGDVFVRYTMAWFRQAPGKEREFVATVTDSGRTTEYVDSVKGRFTVSRDNAKNTVYLQMNNLKPEDTAVYYCAANTDYFRIRSLDANTWGQGTQVTVSS
B2: FJ1427_P035MP03H07 (VHH)
VHH: EVQLVESGGGLVQAGGSLRLSCVVSGDVFVRYTMAWFRQAPGKEREFVAAVTDSGRTTEYVDSVKGRFTVSRDNAKNTVYLQMNNLKPEDTAVYYCAANTDYFQIRSVDNNAWGQGTQVTVSS
B3: FJ1427_P035MP03B09 (VHH)
VHH: QVQLVESGGGLVQAGGSLRLSCVVSGDVFVRYTMAWFRQAPGKEREFVTSITDSGRTTEYVDSVKGRFTVSRDNAKNTVYLQMNNLKPEDTAVYYCAANTDYFRIRSLDANTWGQGTQVTVSS
B4: FJ1427 P035MP03B10 (VHH)
VHH: QVQLVESGGGLVQAGGSLRLSCVVSGDVFVRYTMAWFRQAPGKEREFVAVVTDSGRTTEYVDSVKGRFTVSRDNAKNTVYLQMNNLKPEDTAVYYCAANTDYFQIRSVDNNAWGQGTQVTVSS
B5: FJ1427_P035MP03G09 (VHH)
VHH: QVQLVESGGGLVQAGGSLRLSCVVSGDVFVRYTMAWFRQAPGKEREFVAVVTDSGRTTEYVDSVKGRFTVSRDNAKNTVYLQMNNLKPEDTAVYYCAANTDYFQIRSVDNNAWGQGTQVTVSS
B6: FJ1427_P035MP03E06 (VHH)
VHH: QVQLVESGGGLVQAGRSLGLSCAASGFTFDNYAMSWVRQAPGKGLEWVSSITGAGRGTHYADSVKGRFTISRDNAKNTLYLQMNSLKPEDTAVYYCAKYSSSTYYPPTPARGTDYRGPGTQVTVSS
B7: FJ1427_P035MP03C07 (VHH)
VHH: QVQLVESGGGLVQAGDSLRLSCAASGRSLSTDCMGWVRQAPGKEREFVAGITWGTGSTLYADSVEGRFTISKDNAKNTGYLQMSSLKPEDTAVYYCAVDRYCYRGTVYRDWGRGTQVTVSS
B8: FJ1427_P035MP03B05 (VHH)
VHH: EVQLVESGGGLVQAGGSLRLACALSGDVFVRYTMAWFRQAPGKEREFVASVTDSGRTTDYVASVQGRFTVSRDNNKNTVYLQMNSLKPEDTAVYYCAANTDYFQIRSLDRNTWGQGTQVTVSS
B9: FJ1427 P035MP03D07 (VHH)
VHH: EVQLVESGGGLVQAGGSLRLSCAASGDVFVRYTMAWFRQAPGKEREFVASVTDSGRTTDYGDSVKGRFTVSRDNAKNTVYLQMNNLKPEDTAVYYCAANTDYFQIRSLDANTWGQGTQVTVSS
B10: FJ1427 P035MP03B11 (VHH)
VHH: EVQLVESGGGLVQAGGSLRLACALSGDVFVRYTMAWFRQAPGKEREFVASVTDSGRTTDYVASVQGRFTVSRDNNKNTVYLQMNSLKPEDTAVYYCAANTDYFQIRSLDRNTWGQGTQVTVSS
B11: FJ1427 P035MP03C08 (VHH)
VHH: EVQLVESGGGLVQAGGSLRLACALSGDVFVRYTMAWFRQAPGKEREFVASVTDSGRTTDYVASVQGRFTVSRDNNKNTVYLQMNSLKPEDTAVYYCAANTDYFQIRSLDRNTWGQGTQVTVSS
B12: FJ1427_P035MP03E08 (VHH)
VHH: QVQLVESGGGLVQAGGSLRLSCAAAGRAIENYPVGWFRRAPGKEREFVAAITWISGSTLYADSVKGRFTISRDNAKNTVYLQMSSLKPEDTALYYCAAALKTITRGQNDYSYWGQGTQVTVSS
B13: FJ1427 P035MP03F09 (VHH)
VHH: EVQLVESGGGLVQAGGSLTLSCAASGRAFSNYPVGWFRQAPGKEREFVAAITWLSGSTLYADSVEGRFTISRDNAKNTVYLLMSSLKPEDTALYFCAAALKTITRGQNDYSYWGQGTQVTVSS
B14: FJ1427_P035MP03D10 (VHH)
VHH: QVQLQESGGGLVQAGDSLRLSCVVSGRDFSGYTMGWFRQPPGKEREFVALITWSTGRVHYTDSVEGRFTISRDSAKNTVYLQMNSLKPEDTAVYTCAAGRVGYTTNLHSYDYSGQGTQVIVSA
B15: FJ1427_P035MP03E10 (VHH)
VHH: EVQLVESGGGLVQPGGSLRLSCAASGFTFRNYAMSWVRQAPGKGLEWVGGITGEGLGTIYQDSVEGRFTISRNNAKNTLYLQMNSLRSEDTAVYYCTKMASGTLFRDKPYEYTSRGQGTQVTVSS
B16: FJ1427_P035MP03A07 (VHH)
VHH: QVQLVESGGGLVEAGGSLRLSCAASGRAFNNFPMGWFRQAPGKEREFVAAITWISGSTLYADSVKGRFTISRDKSKNTVYLQMSGLKPEDTALYYCAAALKTITRGQHDYTYWGQGTQVTVSS
B17: FJ1427_P035MP03F04 (VHH)
VHH: EVQLVESGGGLVQTGGSLRLSCAASGSQFINDVMGWYRQVPGKQRELVADMDDTGSTKYADSVKGRFTILRDSVKNTAYLQMSNLKPEDTGVYYCKAGLWIKGRHSDYWGQGTQVTVSS
B18: FJ1427_P035MP03F06 (VHH)
VHH: QVQLQESGGGLVQTGGSLRLSCAASGSQFINDVMGWYRQVPGKQRELVADMDDTGSTKYADSVKGRFTILRDSVKNTAYLQMSNLKPEDTGVYYCKAGLWIKGRHSDYWGQGTQVTVSS
B19: FJ1427_P035MP03E04 (VHH)
VHH: QVQLVESGGGLVQTGGSLRLSCAVSGSHFISDVMGWYRQVPEKQRELVADMADGNSAKYADSVKGRFSILRDSVKNTVYLQMSSLKPEDTGIYYCKAGLWIAGRHSDYWGQGTQVTVSS
B20: FJ1427 P035MP03A06 (VHH)
VHH: EVQLVESGGGLVQTGGSLRLSCAVSGSRFISDVMGWYRQVPGKARELVADMADGGSAKYADSVKGRFSIVRDSGKSTMYLQMSSLKPEDTGMYYCKAGLWIAGRHSDYWGQGTQVTVSS
B21: FJ1427 P035MP03C10 (VHH)
VHH: QVQLVESGGGLVQAGGSLRLSCAASGRTFSTTEMGWFRQAPGKEREFVAAITWTGRGTMYAESVEGRFTISRENAKNMVYLQMNSLKPEDTAIYYCAAARRGRAAVRSEGGYDFWGQGTQVTVSS
B22: FJ1427 P035MP03H10 (VHH)
VHH: QVQLVESGGGLVQAGGSLRLSCAASGRTFSTTEMGWFRQAPGKEREFVAAITWTGRGTMYAESVEGRFTISRENAKNMVYLQMNSLKPEDTAIYYCAAARRGRAAVRSEGGYDFWGQGTQVTVSS
B23: FJ1427 P035MP03F07 (VHH)
VHH: QVQLVESGGGLVQAGGSLRLSCAASGRTFSSYVMGWFRQAPGKEREFVVAITGTRRTTDWPDSVKGRFTISRDNAQNTVYLDMNSLKPEDTAVYYCASARGLPVPPLGDIIHWGEGTLVTVSS
B24: FJ1427_P035MP03A09 (VHH)
VHH: QVQLVESGGGLVQAGGSLRLACAASGRTFSTLTMGWFRQAPGKEREFVAGISPSGGYAWHADSVKGRFTIDRDNAKNTVYLQTRSLRPEDTAVYYCAADHPPYGAVASRSEYEYDDWGPGTRVTVSS
B25: FJ1427_P035MP03G07 (VHH)
VHH: QVQLVESGGGLVQAGGSLRLSCAASGRTFSSDAKGWFRQAPGKEREFVAAITWAGRGTDYADSVKGRFTITRDNAKNMVYLQMSNLKPEDTAVYYCALNPEGVIGPYFRNSNRYNYWGQGTQVTVSS
B26: FJ1427_P035MP03G10 (VHH)
VHH: QVQLVESGGGLVQAGGSLRLSCAASGRSYAMGWFRQAPGKEREFVAAISWSASSTYYSESVKGRFTISRENAKNTVYLQMNSLKPEDTAVYYCAVRASPFVAGSYDPSDDPADYGSWGQGTQVIVSS
B27: FJ1427_P035MP03G05 (VHH)
VHH: EVQLVESGGGLVQIGGSLRLSCAASGRTFSSITMAYFRQVPGKEREWVAGINFSGTRTFYADSVKGRFLISRDDAKSTMYLQMNSLKPEDTAVYYCAASPRGFYGPGNALYDYWGQGTQVTVSS
B28: FJ1427_P035MP03H04 (VHH)
VHH: QVQLVESGGGLVQAGGSLALSCAASGGTFSSYAMGWFRQAPGKEREFVAATTRGGGRTMYAVSTEGRFSCSRDNAKNTVYLLIKNLKPEDTAVYYCAARTSYYDGTYYPASSDFDIWGQGTQVTVSS
B29: FJ1427 P035MP03H05 (VHH)
VHH: QLQLVESGGGLVQAGGSLALSCAASGGTFSSYAMGWFRQAPGKEREFVAATTRGGGRTMYAVSTEGRFSCSRDNAKNTVYLLIKNLKPEDTAVYYCAARTSYYDGTYYPASSDFDIWGQGTQVTVSS
B30: FJ1427_P035MP03H09 (VHH)
VHH: QVQLVESGGGLVQAGGSLRLSCAASGSIFSINAMGWFRQAPGKEREFVAAISRSGGSTAYVDSVKGRFTISRDNSKNMVHLQMNSLKSEDEAVYYCAATAAVGWTSRWITTDFDSWGQGTQVTVSS
B31: FJ1427 P035MP03E05 (VHH)
VHH: EVQLVESGGGLVQAGGSLRLSCAVSGVIFWSDVVGWYRQASGKQRELVATINLDDTKHYGEVVKGRFAISRDSHKNAYYLQLNSLKPEDTAVYYCNVRRGSEFYWGQGTQVTVSS

The values below come from US20240409645A1.

This assay addresses T1, mouse IL-2Rβ (mouse). The assay is described as follows: P.E. binding ELISA on coated protein. Background: An ELISA detects its analyte on a solid surface through an enzyme-linked reagent.
Molecule B1 yielded a P.E. binding ELISA OD of 0.057 OD450 nm.

For B2, the P.E. binding ELISA OD was found to be 0.053 OD450 nm.

In turn, B3 came in with a P.E. binding ELISA OD of 0.046 OD450 nm.

Consider B4, for which the P.E. binding ELISA OD turned out to be 0.05 OD450 nm.

For the molecule B5, the P.E. binding ELISA OD worked out at 0.054 OD450 nm.

The molecule B6 returned a P.E. binding ELISA OD of 0.048 OD450 nm.

On to B7, for which the P.E. binding ELISA OD was determined as 0.047 OD450 nm.

Regarding B8, the P.E. binding ELISA OD amounted to 0.05 OD450 nm.

Take B9: the P.E. binding ELISA OD is 0.049 OD450 nm.

Take B10: the P.E. binding ELISA OD was determined as 0.052 OD450 nm.

Molecule B11 returned a P.E. binding ELISA OD of 0.054 OD450 nm.

In the case of B12, the P.E. binding ELISA OD was 0.048 OD450 nm.

The molecule B13 displayed a P.E. binding ELISA OD of 0.048 OD450 nm.

B14 returned a P.E. binding ELISA OD of 0.047 OD450 nm.

Consider B15, for which the P.E. binding ELISA OD was determined as 0.048 OD450 nm.

Molecule B16 returned a P.E. binding ELISA OD of 0.049 OD450 nm.

For the molecule B17, the P.E. binding ELISA OD is 0.049 OD450 nm.

Consider B18, for which the P.E. binding ELISA OD amounted to 0.048 OD450 nm.

Turning to B19, the P.E. binding ELISA OD stood at 0.048 OD450 nm.

Take B20: the P.E. binding ELISA OD amounted to 0.047 OD450 nm.

In the case of B21, the P.E. binding ELISA OD was found to be 0.047 OD450 nm.

Molecule B22 had a P.E. binding ELISA OD of 0.049 OD450 nm.

In the case of B23, the P.E. binding ELISA OD is 0.048 OD450 nm.

As for B24, the P.E. binding ELISA OD stood at 0.049 OD450 nm.

Take B25: the P.E. binding ELISA OD came to 0.048 OD450 nm.

In turn, B26 yielded a P.E. binding ELISA OD of 0.048 OD450 nm.

In the case of B27, the P.E. binding ELISA OD is 0.049 OD450 nm.

Consider B28, for which the P.E. binding ELISA OD came to 0.05 OD450 nm.

For B29, the P.E. binding ELISA OD was 0.049 OD450 nm.

The molecule B30 showed a P.E. binding ELISA OD of 0.052 OD450 nm.

As for B31, the P.E. binding ELISA OD was determined as 0.049 OD450 nm.
